Experimental data as given in patent US20220267469A1 (LIPUM, published 2022).

T1: Human BSSL (bile salt-stimulated lipase), native (human, UniProt P19835 21-753)
T1 construct: Native full-length protein purified from human milk (Astra Hässle AB); also called hBSSL; non-biotinylated human BSSL
T1 sequence: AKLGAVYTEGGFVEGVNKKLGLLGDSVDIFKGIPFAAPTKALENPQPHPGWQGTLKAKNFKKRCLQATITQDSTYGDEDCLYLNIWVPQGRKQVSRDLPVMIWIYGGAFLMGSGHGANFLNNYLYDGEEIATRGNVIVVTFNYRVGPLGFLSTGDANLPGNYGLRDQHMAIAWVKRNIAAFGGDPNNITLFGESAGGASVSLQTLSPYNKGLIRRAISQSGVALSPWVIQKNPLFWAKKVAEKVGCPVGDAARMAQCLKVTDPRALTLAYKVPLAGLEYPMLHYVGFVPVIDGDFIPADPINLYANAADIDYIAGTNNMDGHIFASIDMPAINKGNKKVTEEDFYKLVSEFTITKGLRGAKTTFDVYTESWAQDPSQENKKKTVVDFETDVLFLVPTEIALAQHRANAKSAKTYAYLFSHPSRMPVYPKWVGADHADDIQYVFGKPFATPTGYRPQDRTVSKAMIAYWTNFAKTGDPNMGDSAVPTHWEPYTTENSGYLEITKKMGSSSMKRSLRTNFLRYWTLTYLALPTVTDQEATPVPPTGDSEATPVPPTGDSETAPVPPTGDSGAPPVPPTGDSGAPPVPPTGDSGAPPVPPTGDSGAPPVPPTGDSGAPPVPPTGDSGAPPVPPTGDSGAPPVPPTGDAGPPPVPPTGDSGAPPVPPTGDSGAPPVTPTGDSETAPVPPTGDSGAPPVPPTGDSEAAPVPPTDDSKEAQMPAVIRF

T2: Mouse BSSL, recombinant (mouse, UniProt Q64285 21-599)
T2 construct: Bought (R&D Systems, Cat. no 5658-CE); also called mBSSL; murine BSSL
T2 sequence: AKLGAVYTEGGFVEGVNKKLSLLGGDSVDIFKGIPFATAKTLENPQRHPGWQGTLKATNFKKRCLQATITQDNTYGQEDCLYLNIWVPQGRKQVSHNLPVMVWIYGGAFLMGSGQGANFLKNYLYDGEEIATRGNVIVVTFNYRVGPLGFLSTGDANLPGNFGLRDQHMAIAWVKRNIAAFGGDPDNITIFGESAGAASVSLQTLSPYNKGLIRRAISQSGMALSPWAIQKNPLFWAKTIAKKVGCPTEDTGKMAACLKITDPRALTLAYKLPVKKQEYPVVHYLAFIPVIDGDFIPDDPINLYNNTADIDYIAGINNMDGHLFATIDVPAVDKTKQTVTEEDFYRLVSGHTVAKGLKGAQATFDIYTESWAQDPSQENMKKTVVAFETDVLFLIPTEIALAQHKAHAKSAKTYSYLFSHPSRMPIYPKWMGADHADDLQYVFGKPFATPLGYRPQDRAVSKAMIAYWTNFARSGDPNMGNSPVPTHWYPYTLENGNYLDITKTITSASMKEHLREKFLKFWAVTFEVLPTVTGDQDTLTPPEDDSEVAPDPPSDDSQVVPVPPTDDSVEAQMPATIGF

T3: Biotinylated human BSSL (human, UniProt P19835 21-753, Biotinylated on glycosacarides, 30-40 biotin/BSSL)
T3 construct: hBSSL biotinylated in house; also called b-hBSSL; human BSSL-biotin
T3 sequence: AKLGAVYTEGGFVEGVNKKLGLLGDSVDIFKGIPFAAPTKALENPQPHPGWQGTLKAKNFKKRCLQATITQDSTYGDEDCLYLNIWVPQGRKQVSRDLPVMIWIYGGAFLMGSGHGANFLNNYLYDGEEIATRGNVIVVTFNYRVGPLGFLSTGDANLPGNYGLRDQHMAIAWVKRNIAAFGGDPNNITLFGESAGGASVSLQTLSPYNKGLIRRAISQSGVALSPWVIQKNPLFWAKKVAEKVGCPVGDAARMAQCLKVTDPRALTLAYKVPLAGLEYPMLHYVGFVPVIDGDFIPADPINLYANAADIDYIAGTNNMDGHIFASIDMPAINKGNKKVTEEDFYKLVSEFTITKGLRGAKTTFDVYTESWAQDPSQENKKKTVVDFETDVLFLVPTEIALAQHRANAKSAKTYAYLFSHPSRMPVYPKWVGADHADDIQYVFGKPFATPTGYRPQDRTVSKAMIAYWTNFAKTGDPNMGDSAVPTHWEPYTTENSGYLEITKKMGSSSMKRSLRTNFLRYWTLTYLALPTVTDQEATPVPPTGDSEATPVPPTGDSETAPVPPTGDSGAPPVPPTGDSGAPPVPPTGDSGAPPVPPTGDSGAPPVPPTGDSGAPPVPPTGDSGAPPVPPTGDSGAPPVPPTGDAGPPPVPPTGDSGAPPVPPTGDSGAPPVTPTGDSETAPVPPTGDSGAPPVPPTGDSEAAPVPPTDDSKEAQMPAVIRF


How the values were obtained:
[1] = biological target: T1, Human BSSL (bile salt-stimulated …); assay: SPR single cycle kinetics, hIgG4 S228P captured by anti-Fab
Experimental: (§1) Kinetic parameters of the hIgG4 S228P clones were determined by SPR using BIACORE® T200 (GE Healthcare). Single cycle kinetics was used to measure the affinity of the purified hIgG4 molecules to human and mouse BSSL. An anti-Fab antibody (GE Healthcare, #28958325) was immobilized on a CM5 S sensor chip by primary amine coupling using NHS-EDC chemistry. hIgG4 was captured by the anti-Fab antibody, and subsequently, five different concentrations of hBSSL (1:5 dilutions starting from 50 nM) or mBSSL (1:5 dilutions starting from 500 nM) were injected over the surface. The sensor chip surface was regenerated with 10 mM glycine-HCl pH 2.1. For binding to human BSSL, single cycle kinetic data was fitted to a 1:1 binding model and kinetic parameters were retrieved using software BlAevaluation. For mouse BSSL, a steady state analysis was performed by plotting the response level at equilibrium against each concentration, and KD values were retrieved by the BlAevalution software.

[2] = biological target: T2, Mouse BSSL, recombinant; assay: SPR steady state, hIgG4 S228P captured by anti-Fab
Experimental: as §1

[3] = biological target: T3, Biotinylated human BSSL; assay: flow cytometry displacement assay; 3.0 ug antibody, 1 ug b-hBSSL
Experimental: (§2) The 28 BSSL-specific hIgG4 antibodies and the five reference antibodies at different concentrations (ranging from 0.5 μg to 3.0 μg per reaction; see Table 10) were added to b-hBSSL (1 μg per reaction, see Table 2) in round-bottom polystyrene tubes, lx PBS (pH 7.4) was added to a final volume of 20 μl and the antibody/b-hBSSL mixtures were incubated for 30 min. at +4° C. to facilitate binding of antibodies to BSSL. Buffy coat (50 μl) was then added to each antibody/b-hBSSL mixture and incubation continued for another 30 min at +4° C. Thereafter, 2 ml of FACS lysing solution (BD Biosciences) was added and the cells were incubated for 10 min at room temperature in order to lyse erythrocytes and fix the white blood cells. The cells were then centrifuged for 5 min. at 200×g, the resulting pellets were washed by adding 2 ml of FACS buffer (1×PBS supplemented with 1% FCS and 0.1% NaN3) and centrifuged again. Finally, the supernatants were discarded and the cells were resuspended in the last drop of liquid, approximately 50 μl.
(§3) 5 μl of BV421-labelled anti-human CD14 (BD Biosciences) and 5 μl of BB515-labelled streptavidin (BD Biosciences) was added to each tube and incubated for 30 min, at +4° C., protected from light. Thereafter, cells were washed twice with FACS buffer, resuspended in 500 μl FACS buffer, and run on BD LSRII flow cytometer (BD Biosciences). Finally, data were analyzed using FlowJo software (BD Biosciences).

[4] = biological target: T3, Biotinylated human BSSL; assay: flow cytometry displacement assay; 1.5 ug antibody, 1 ug b-hBSSL
Experimental: as §2, §3

Binder | Kd [1] [nM] | Kd [2] [nM] | percentage reduction of b-hBSSL binding to CD14+ monocytes [3] [%] | percentage reduction of b-hBSSL binding to CD14+ monocytes [4] [%]
S-SL048-47 hIgG4 S228P (antibody, V domains shown, Tested as human IgG4 S228P) VH: QVQLVQSGAEVKKPGASVKVSCKASGYTFTSYNMHWVRQAPGQGLEWIGVINPGGGYTSYTQKFQGRVTMTRDTSTSTVYMELSSLRSEDTAVYYCARDYYGSSPLGYWGQGTLVTVSS VL: DIQMTQSPSSLSASVGDRVTITCSASPSISYMNWYQQKPGKAPKLLIYATSRLQSGVPSRFSGSGSGTDFTLTISSLQPEDFATYYCQQRSSTPTFGQGTKLEIK | 8.5 |  |  | 
S-SL048-45 hIgG4 S228P (antibody, V domains shown, Tested as human IgG4 S228P) VH: QVQLVQSGAEVKKPGASVKVSCKASGYTFTSYNMHWVRQAPGQGLEWMGVINPSDGATSYTQKFQGRVTMTRDTSTSTVYMELSSLRSEDTAVYYCARDYYGSSPLGYWGQGTLVTVSS VL: DIQMTQSPSSLSASVGDRVTITCRASQSISYLHWYQQKPGKAPKLLIYAASRLASGVPSRFSGSGSGTDFTLTISSLQPEDFATYYCHQRSSTPTFGQGTKLEIK | 9.6 | 82 |  | 
S-SL048-86 hIgG4 S228P (antibody, V domains shown, Tested as human IgG4 S228P) VH: QVQLVQSGAEVKKPGASVKVSCKASGYTFTSYNMHWVRQAPGQGLEWMGVINPGDGATSYAQKFQGRVTMTRDTSTSTVYMELSSLRSEDTAVYYCARDYYGSSPLGYWGQGTLVTVSS VL: DIQMTQSPSSLSASVGDRVTITCRASQSISYLHWYQQKPGKAPKLLIYATSSLQSGVPSRFSGSGSGTDFTLTISSLQPEDFATYYCHQRSSYPTFGQGTKLEIK | 6.8 | 167 |  | 

Now those with a lower Kd [1], led by results:

Kd [1] [nM] | Kd [2] [nM] | percentage reduction of b-hBSSL binding to CD14+ monocytes [3] [%] | percentage reduction of b-hBSSL binding to CD14+ monocytes [4] [%] | Binder
6 | 186 |  |  | S-SL048-115 hIgG4 S228P (antibody, V domains shown, Tested as human IgG4 S228P) VH: QVQLVQSGAEVKKPGASVKVSCKASGYTFTSYNMHWVRQAPGQGLEWMGVINPSDGATSYAQKFKGRVTMTRDTSTSTVYMELSSLRSEDTAVYYCARDYYGSSPLGYWGQGTLVTVSS VL: DIQMTQSPSSLSASVGDRVTITCRASQSISYMHWYQQKPGKAPKLLIYAASKLPSGVPSRFSGSGSGTDFTLTISSLQPEDFATYYCHQRSSSPTFGQGTKLEIK
5 |  | 54 | 28 | S-SL048-112 hIgG4 S228P (antibody, V domains shown, Tested as human IgG4 S228P) VH: QVQLVQSGAEVKKPGASVKVSCKASGYTFTSYNMHWVRQAPGQGLEWIGIIYPGDGATSYNQKFKGRVTMTRDTSTSTVYMELSSLRSEDTAVYYCARDYYGSSPLGYWGQGTLVTVSS VL: DIQMTQSPSSLSASVGDRVTITCRASSSISYMHWYQQKPGKAPKLLIYATSRLASGVPSRFSGSGSGTDFTLTISSLQPEDFATYYCHQRSSTPTFGQGTKLEIK
6 | 237 |  |  | S-SL048-105 hIgG4 S228P (antibody, V domains shown, Tested as human IgG4 S228P) VH: QVQLVQSGAEVKKPGASVKVSCKASGYTFTSYNMHWVRQAPGQGLEWMGVINPSDGATSYAQKFQGRVTMTRDTSTSTVYMELSSLRSEDTAVYYCARDYYGSSPLGYWGQGTLVTVSS VL: DIQMTQSPSSLSASVGDRVTITCSASQSISYLHWYQQKPGKAPKLLIYAASKLPSGVPSRFSGSGSGTDFTLTISSLQPEDFATYYCHQRSSYPTFGQGTKLEIK
